Assay results reported in patent US20250276018A1 (AFFYIMMUNE THERAPEUTICS, published 2025).
Changes are numbered by the printed parent chain. In names and notes the source's numbering stands.

B1: Affy7-Y6I CAR (other)
chain: GSEQKLISEEDLGSQVQLQQSGPELVRPGASVKMSCRASGYTFTSYWLHWVKQRPGQGLEWIGMIDPSNSDTRFNPNFKDKATLNVDRSSNTAYMLLSSLTSADSAVYYCATIGSYVSPLDYWGQGTSVTVSSGGGGSGGGGSGGGGSDIMMSQSPSSLTVSVGEKVTVSCKSSQSLLYTSSQKNYLAWYQQKPGQSPKLLIYWASTRESGVPDRFTGSGSGTDFTLTITSVKADDLAVYYCQQYYAYPWTFGGGTKLEIKRASTTTPAPRPPTPAPTIASQPLSLRPEACRPAAGGAVHTRGLDFACDFWVLVVVGGVLACYSLLVTVAFIIFWVRSKRSRLLHSDYMNMTPRRPGPTRKHYQPYAPPRDFAAYRSLRVKFSRSADAPAYQQGQNQLYNELNLGRREEYDVLDKRRGRDPEMGGKPRRKNPQEGLYNELQKDKMAEAYSEIGMKGERRRGKGHDGLYQGLSTATKDTYDALHMQALPPR
notes: CAR on transduced human T cells; Y to I in HC CDR3; P2A remnant not included; also called MycT-Affy7-Y6I CAR-SSTR2
B2: Affy7-Y6M CAR (other)
chain: B1 chain with I113M
notes: CAR on transduced human T cells; Y to M in HC CDR3; P2A remnant not included; also called MycT-Affy7-Y6M CAR-SSTR2
B3: Affy7-Y6V CAR (other)
chain: B1 chain with I113V
notes: CAR on transduced human T cells; Y to V in HC CDR3; P2A remnant not included; also called MycT-Affy7-Y6V CAR-SSTR2
B4: Affy7-Y6L CAR (other)
chain: B1 chain with I113L
notes: CAR on transduced human T cells; Y to L in HC CDR3; P2A remnant not included; also called MycT-Affy7-Y6L CAR-SSTR2

Tests used:
[1] = target: T1, AF647 labeled c-met protein (UniProt P08581 25-932, limits assumed, labeled with AlexaFluor 647 (AF647)); assay: flow cytometry, AF647-labeled c-met protein titrated on CAR-T cells (Round 2)
T1 construct: Soluble labeled c-met protein titrated on CAR-T cells
Procedure: (§1) Binding of labeled c-MET to CAR-T cells expressing the affinity tuned c-MET scFvs was evaluated by transducing lentivirus anti-c-MET CAR particles into human T cells to form c-MET CAR-T cells incubated with AF647-labeled c-MET. […] Following a 48 hr. incubation at 37° C., the culture media was brought up to […] per well and incubated at 37° C. for 10 days.
(§2) Cells were stained on ice for 30 mins and then washed with PBS. After washing, residually bound protein on CAR T cells were measured on a flow cytometer (Beckman, CytoFLEX®). The resulting binding data was fit using a non-linear regression analysis on GraphPad Prism to calculate half effective dose concentration (EC₅₀) values. The results of this analysis are shown in FIGS. 2-5 and Tables 2-5 below.

[2] = target: T2, c-MET on human target cells (human, UniProt P08581 25-1390); assay: cell-based or functional assay
[3] = target: T2, c-MET on human target cells; assay: cell-based or functional assay; remark: listed apart in the source
[4] = target: T2, c-MET on human target cells; assay: cell-based or functional assay; remark: listed apart in the source
[5] = target: T1, AF647 labeled c-met protein; assay: flow cytometry, EC50 relative to parental Affy7 CAR-T cells (Round 2)
Procedure: as §1, §2

[6] = target: T2, c-MET on human target cells; assay: cell-based or functional assay; remark: listed apart in the source
[7] = target: T2, c-MET on human target cells; assay: cell-based or functional assay; remark: listed apart in the source
[8] = target: T2, c-MET on human target cells; assay: cell-based or functional assay; remark: listed apart in the source
[9] = target: T2, c-MET on human target cells; assay: cell-based or functional assay; remark: listed apart in the source

T2 sequence (P08581 25-1390): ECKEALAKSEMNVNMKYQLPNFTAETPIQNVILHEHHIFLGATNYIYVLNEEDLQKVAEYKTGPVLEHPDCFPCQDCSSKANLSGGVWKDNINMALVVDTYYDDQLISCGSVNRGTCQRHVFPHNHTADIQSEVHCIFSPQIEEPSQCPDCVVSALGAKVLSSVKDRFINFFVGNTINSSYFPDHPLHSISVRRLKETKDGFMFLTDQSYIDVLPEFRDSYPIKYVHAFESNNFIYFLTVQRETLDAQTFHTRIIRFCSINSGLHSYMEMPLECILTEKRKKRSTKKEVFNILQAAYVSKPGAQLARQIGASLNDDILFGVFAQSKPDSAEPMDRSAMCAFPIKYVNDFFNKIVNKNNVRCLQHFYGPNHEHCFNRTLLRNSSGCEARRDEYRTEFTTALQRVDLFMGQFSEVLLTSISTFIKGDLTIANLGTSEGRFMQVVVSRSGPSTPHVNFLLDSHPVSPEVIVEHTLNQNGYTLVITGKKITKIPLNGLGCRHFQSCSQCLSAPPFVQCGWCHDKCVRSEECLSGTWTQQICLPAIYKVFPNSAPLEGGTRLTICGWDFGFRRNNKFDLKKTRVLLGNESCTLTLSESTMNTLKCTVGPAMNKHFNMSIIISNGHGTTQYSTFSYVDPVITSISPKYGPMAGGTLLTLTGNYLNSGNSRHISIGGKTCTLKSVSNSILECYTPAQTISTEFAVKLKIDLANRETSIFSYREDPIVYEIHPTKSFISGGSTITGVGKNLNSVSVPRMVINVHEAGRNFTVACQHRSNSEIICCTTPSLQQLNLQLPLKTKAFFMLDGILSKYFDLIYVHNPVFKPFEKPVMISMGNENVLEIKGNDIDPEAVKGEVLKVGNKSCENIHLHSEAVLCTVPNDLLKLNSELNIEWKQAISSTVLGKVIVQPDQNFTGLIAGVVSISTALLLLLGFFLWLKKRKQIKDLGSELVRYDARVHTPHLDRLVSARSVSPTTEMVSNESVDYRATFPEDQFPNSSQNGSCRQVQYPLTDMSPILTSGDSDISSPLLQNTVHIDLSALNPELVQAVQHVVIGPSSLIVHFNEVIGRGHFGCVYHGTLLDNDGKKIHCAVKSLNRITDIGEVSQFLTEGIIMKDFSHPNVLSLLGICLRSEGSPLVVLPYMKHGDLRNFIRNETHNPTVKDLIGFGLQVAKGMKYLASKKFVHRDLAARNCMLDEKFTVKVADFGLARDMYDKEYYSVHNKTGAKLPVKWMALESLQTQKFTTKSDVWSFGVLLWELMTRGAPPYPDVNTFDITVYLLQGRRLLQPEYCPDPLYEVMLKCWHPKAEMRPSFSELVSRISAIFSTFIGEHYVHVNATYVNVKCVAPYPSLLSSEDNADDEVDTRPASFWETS
T1 sequence (P08581 25-932 limits assumed): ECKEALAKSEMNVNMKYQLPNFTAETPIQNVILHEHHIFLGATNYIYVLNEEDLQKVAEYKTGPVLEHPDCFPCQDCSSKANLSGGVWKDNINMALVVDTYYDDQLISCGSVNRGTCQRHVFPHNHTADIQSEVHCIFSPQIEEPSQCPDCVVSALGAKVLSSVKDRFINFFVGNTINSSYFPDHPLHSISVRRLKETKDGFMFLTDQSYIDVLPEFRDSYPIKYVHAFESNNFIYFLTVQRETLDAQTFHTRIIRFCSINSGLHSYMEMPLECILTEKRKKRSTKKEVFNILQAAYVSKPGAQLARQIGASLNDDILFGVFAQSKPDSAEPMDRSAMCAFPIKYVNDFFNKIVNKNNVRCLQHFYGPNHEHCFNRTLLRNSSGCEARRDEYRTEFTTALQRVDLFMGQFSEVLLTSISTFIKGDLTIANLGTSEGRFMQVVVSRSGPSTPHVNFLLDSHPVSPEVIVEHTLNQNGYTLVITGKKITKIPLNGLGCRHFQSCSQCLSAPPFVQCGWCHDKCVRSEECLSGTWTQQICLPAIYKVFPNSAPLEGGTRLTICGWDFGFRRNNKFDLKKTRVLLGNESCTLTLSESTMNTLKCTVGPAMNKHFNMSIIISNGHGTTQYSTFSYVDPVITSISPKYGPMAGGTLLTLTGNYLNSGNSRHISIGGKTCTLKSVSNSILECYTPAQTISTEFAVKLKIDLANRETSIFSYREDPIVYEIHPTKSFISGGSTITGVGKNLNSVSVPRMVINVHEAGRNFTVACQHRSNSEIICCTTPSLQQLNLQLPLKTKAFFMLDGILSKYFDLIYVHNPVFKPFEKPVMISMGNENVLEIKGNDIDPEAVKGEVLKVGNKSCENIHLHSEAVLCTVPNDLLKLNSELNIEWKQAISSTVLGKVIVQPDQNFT

Binder	EC50 [1]	percent cytotoxicity, SNU638, 24 hrs [2]	percent cytotoxicity, SNU638, 48 hrs [2]	percent cytotoxicity, SNU638, 72 hrs [2]	percent cytotoxicity, H1993, 24 hrs [3]	percent cytotoxicity, H1993, 48 hrs [3]	percent cytotoxicity, H1993, 72 hrs [3]	cytotoxicity, Normal Human Lung Cells, 8 hrs [4]	cytotoxicity, Normal Human Lung Cells, 16 hrs [4]	cytotoxicity, Normal Human Lung Cells, 24 hrs [4]	cytotoxicity, Normal Human Lung Cells, 32 hrs [4]	cytotoxicity, Normal Human Lung Cells, 40 hrs [4]	cytotoxicity, Normal Human Lung Cells, 48 hrs [4]	Fold Change [5]	cytotoxicity, Normal Human Colon Cells, 8 hrs [6]	cytotoxicity, Normal Human Colon Cells, 16 hrs [6]	cytotoxicity, Normal Human Colon Cells, 24 hrs [6]	cytotoxicity, Normal Human Colon Cells, 32 hrs [6]	cytotoxicity, Normal Human Colon Cells, 40 hrs [6]	cytotoxicity, Normal Human Colon Cells, 48 hrs [6]	also measured
B1	183 µM	67%	83.6%	93.2%	11.7%	45.8%	73.5%	23.1	27.5	26.9	29.7	29.9	30.9	1830 fold	15.1	18.8	20.8	28.9	32.5	36.4	percent cytotoxicity, Hs746T, 24 hrs [7]: 1.5%; percent cytotoxicity, Hs746T, 48 hrs [7]: 45.4%; percent cytotoxicity, Hs746T, 72 hrs [7]: 69.4%; cytotoxicity, Normal Human Liver Cells, 8 hrs [8]: 7.8; cytotoxicity, Normal Human Liver Cells, 16 hrs [8]: 6.2; cytotoxicity, Normal Human Liver Cells, 24 hrs [8]: 7.4; cytotoxicity, Normal Human Liver Cells, 32 hrs [8]: 17.8; cytotoxicity, Normal Human Liver Cells, 40 hrs [8]: 16.4; cytotoxicity, Normal Human Liver Cells, 48 hrs [8]: 13.6; cytotoxicity, Normal Human Kidney Cells, 8 hrs [9]: 20.5; cytotoxicity, Normal Human Kidney Cells, 16 hrs [9]: 20.9; cytotoxicity, Normal Human Kidney Cells, 24 hrs [9]: 25.8; cytotoxicity, Normal Human Kidney Cells, 32 hrs [9]: 27.6; cytotoxicity, Normal Human Kidney Cells, 40 hrs [9]: 29.7; cytotoxicity, Normal Human Kidney Cells, 48 hrs [9]: 33.9
B2	17.2 µM	61.2%	77.5%	90.6%	21.3%	70.5%	89.6%	9.9	9.7	6.3	6.9	9.5	13.8	172 fold	1.4	1.7	1.4	7.1	1.8	3.6	percent cytotoxicity, Hs746T, 24 hrs [7]: 47.6%; percent cytotoxicity, Hs746T, 48 hrs [7]: 87%; percent cytotoxicity, Hs746T, 72 hrs [7]: 96.4%; cytotoxicity, Normal Human Liver Cells, 8 hrs [8]: 7.2; cytotoxicity, Normal Human Liver Cells, 16 hrs [8]: 6.2; cytotoxicity, Normal Human Liver Cells, 24 hrs [8]: 9; cytotoxicity, Normal Human Liver Cells, 32 hrs [8]: 10.9; cytotoxicity, Normal Human Liver Cells, 40 hrs [8]: 11.3; cytotoxicity, Normal Human Liver Cells, 48 hrs [8]: 10; cytotoxicity, Normal Human Kidney Cells, 8 hrs [9]: 8.8; cytotoxicity, Normal Human Kidney Cells, 16 hrs [9]: 10; cytotoxicity, Normal Human Kidney Cells, 24 hrs [9]: 12; cytotoxicity, Normal Human Kidney Cells, 32 hrs [9]: 13.3; cytotoxicity, Normal Human Kidney Cells, 40 hrs [9]: 15.9; cytotoxicity, Normal Human Kidney Cells, 48 hrs [9]: 19.7
B3	5.3 µM	68.1%	81.9%	93.2%	40%	84.2%	93.8%	18.2	18	15.4	17.9	16.7	21.5	53 fold	9.4	13.5	14	18.2	20.3	22.2	percent cytotoxicity, Hs746T, 24 hrs [7]: 65%; percent cytotoxicity, Hs746T, 48 hrs [7]: 94.8%; percent cytotoxicity, Hs746T, 72 hrs [7]: 98.2%; cytotoxicity, Normal Human Liver Cells, 8 hrs [8]: 6.5; cytotoxicity, Normal Human Liver Cells, 16 hrs [8]: 3.9; cytotoxicity, Normal Human Liver Cells, 24 hrs [8]: 5.5; cytotoxicity, Normal Human Liver Cells, 32 hrs [8]: 8.7; cytotoxicity, Normal Human Liver Cells, 40 hrs [8]: 10.7; cytotoxicity, Normal Human Liver Cells, 48 hrs [8]: 10.8; cytotoxicity, Normal Human Kidney Cells, 8 hrs [9]: 9.3; cytotoxicity, Normal Human Kidney Cells, 16 hrs [9]: 9.7; cytotoxicity, Normal Human Kidney Cells, 24 hrs [9]: 10.6; cytotoxicity, Normal Human Kidney Cells, 32 hrs [9]: 10.3; cytotoxicity, Normal Human Kidney Cells, 40 hrs [9]: 11; cytotoxicity, Normal Human Kidney Cells, 48 hrs [9]: 14.8
B4	619 µM	66.9%	84.5%	93.5%	12.8%	42.6%	71.2%	21.1	23.6	22.8	25.4	25.9	30.1	6190 fold	12.1	16.4	13.6	19	20	17.2	percent cytotoxicity, Hs746T, 24 hrs [7]: 1.6%; percent cytotoxicity, Hs746T, 48 hrs [7]: 42.9%; percent cytotoxicity, Hs746T, 72 hrs [7]: 64.5%; cytotoxicity, Normal Human Liver Cells, 8 hrs [8]: 6.1; cytotoxicity, Normal Human Liver Cells, 16 hrs [8]: 2.3; cytotoxicity, Normal Human Liver Cells, 24 hrs [8]: 2.5; cytotoxicity, Normal Human Liver Cells, 32 hrs [8]: 1.1; cytotoxicity, Normal Human Liver Cells, 40 hrs [8]: 0; cytotoxicity, Normal Human Liver Cells, 48 hrs [8]: 3.2; cytotoxicity, Normal Human Kidney Cells, 8 hrs [9]: 11.7; cytotoxicity, Normal Human Kidney Cells, 16 hrs [9]: 12.9; cytotoxicity, Normal Human Kidney Cells, 24 hrs [9]: 14.8; cytotoxicity, Normal Human Kidney Cells, 32 hrs [9]: 16.2; cytotoxicity, Normal Human Kidney Cells, 40 hrs [9]: 17.1; cytotoxicity, Normal Human Kidney Cells, 48 hrs [9]: 21.4
